What was measured:
c-Src SH2 = test: SH2 binding enrichment of the phosphorylated peptide, bacterial display (enrichment ratio); higher = better substrate or ligand; peptides without Tyr show the background
Grb2 SH2 = Grb2 SH2 (UniProt P62993); test: as above
SHP2-C SH2 = test: as above
Fes = Fes (UniProt P07332); test: phosphorylation enrichment, bacterial display (enrichment ratio); higher = better substrate or ligand; peptides without Tyr show the background
EPHB2 = EPHB2 (UniProt P29323); test: as above
EPHB2, sequence (P29323 whole entry, looked up): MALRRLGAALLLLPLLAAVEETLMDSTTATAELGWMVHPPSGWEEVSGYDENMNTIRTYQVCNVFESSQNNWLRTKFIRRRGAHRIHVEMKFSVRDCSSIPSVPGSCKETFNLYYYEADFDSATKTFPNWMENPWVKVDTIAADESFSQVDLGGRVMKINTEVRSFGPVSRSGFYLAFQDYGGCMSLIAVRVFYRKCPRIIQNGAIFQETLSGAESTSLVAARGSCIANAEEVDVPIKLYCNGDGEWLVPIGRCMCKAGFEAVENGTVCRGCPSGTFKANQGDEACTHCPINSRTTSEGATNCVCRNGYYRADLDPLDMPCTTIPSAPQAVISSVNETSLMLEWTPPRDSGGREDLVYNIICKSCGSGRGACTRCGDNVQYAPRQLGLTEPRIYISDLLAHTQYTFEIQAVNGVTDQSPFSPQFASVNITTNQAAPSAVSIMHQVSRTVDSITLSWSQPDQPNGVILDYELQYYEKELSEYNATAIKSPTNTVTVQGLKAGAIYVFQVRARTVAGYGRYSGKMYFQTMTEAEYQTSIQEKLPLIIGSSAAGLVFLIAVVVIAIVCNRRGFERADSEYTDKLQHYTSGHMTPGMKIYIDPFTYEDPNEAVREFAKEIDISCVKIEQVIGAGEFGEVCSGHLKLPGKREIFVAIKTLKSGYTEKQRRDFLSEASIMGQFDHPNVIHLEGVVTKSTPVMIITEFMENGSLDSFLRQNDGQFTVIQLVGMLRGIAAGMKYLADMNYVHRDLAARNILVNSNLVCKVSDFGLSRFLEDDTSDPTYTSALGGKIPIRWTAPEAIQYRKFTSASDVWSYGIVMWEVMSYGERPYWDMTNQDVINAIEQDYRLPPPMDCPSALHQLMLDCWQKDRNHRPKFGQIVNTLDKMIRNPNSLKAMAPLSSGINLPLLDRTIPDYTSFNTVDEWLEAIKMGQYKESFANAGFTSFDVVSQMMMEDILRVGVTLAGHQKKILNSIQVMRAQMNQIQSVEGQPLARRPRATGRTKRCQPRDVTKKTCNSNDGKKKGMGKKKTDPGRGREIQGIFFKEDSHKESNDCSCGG

Fyn = Fyn (UniProt P06241); test: as above
Fyn, sequence (P06241 whole entry, looked up): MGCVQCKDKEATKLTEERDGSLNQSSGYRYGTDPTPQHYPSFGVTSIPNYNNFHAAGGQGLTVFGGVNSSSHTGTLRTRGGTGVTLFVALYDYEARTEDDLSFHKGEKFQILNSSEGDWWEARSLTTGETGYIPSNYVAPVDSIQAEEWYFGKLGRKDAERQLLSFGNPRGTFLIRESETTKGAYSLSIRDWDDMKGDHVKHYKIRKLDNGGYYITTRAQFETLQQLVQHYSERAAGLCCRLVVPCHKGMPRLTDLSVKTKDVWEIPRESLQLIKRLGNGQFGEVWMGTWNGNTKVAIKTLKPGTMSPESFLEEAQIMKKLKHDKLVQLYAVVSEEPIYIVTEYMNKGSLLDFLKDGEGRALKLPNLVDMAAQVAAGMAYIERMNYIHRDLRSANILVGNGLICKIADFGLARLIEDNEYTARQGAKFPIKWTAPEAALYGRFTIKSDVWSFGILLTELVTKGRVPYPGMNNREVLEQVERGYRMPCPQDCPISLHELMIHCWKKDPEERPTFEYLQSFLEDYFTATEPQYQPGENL

FGFR1 = FGFR1 (UniProt P11362); test: as above
EPHB1 = EPHB1 (UniProt P54762); test: as above
MERTK = MERTK (UniProt Q12866); test: as above
MERTK, sequence (Q12866 whole entry, looked up): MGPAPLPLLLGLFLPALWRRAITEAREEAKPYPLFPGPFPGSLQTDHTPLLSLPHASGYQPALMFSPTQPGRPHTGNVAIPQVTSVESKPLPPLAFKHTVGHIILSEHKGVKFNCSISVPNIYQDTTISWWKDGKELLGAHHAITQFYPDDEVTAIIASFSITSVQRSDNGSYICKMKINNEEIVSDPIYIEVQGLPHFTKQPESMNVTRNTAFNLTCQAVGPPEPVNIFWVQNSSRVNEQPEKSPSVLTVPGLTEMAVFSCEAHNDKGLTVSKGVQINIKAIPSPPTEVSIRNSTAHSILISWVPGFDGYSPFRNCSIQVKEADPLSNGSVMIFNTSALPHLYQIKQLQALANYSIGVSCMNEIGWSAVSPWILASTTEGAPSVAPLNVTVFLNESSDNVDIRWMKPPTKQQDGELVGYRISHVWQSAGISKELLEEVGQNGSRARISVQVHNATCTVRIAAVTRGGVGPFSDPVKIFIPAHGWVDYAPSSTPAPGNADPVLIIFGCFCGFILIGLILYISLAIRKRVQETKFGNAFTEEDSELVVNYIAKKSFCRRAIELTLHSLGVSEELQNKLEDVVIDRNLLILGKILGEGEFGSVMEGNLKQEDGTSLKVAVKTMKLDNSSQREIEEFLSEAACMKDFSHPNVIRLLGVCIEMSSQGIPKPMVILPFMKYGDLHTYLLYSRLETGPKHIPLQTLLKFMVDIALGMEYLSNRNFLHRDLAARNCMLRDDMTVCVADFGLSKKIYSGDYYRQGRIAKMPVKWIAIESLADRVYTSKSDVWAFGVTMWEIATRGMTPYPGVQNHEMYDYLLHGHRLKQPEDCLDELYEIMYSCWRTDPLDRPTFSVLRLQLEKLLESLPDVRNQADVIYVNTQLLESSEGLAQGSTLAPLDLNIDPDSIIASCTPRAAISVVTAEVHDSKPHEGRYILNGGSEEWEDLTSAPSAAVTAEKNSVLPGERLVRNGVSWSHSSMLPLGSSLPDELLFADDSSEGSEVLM

Hck = Hck (UniProt P08631); test: as above
Hck, sequence (P08631 whole entry, looked up): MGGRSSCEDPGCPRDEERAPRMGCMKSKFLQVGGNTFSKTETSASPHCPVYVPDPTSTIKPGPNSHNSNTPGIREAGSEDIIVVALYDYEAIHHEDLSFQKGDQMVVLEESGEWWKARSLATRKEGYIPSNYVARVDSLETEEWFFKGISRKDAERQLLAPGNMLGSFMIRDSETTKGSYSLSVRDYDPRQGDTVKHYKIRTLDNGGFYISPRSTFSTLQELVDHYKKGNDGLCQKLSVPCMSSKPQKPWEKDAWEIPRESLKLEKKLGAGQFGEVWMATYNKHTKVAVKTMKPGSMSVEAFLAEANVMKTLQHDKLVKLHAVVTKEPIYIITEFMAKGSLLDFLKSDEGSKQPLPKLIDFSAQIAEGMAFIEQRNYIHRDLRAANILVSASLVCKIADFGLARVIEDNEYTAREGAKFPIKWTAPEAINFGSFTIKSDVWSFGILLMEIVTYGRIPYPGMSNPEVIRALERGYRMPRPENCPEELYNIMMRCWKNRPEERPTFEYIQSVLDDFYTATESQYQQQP

FGFR3 = FGFR3 (UniProt P22607); test: as above
Fer (mouse) = test: as above
c-Src = test: as above
Jak2 = Jak2 (UniProt O60674); test: as above
Jak2, sequence (O60674 whole entry, looked up): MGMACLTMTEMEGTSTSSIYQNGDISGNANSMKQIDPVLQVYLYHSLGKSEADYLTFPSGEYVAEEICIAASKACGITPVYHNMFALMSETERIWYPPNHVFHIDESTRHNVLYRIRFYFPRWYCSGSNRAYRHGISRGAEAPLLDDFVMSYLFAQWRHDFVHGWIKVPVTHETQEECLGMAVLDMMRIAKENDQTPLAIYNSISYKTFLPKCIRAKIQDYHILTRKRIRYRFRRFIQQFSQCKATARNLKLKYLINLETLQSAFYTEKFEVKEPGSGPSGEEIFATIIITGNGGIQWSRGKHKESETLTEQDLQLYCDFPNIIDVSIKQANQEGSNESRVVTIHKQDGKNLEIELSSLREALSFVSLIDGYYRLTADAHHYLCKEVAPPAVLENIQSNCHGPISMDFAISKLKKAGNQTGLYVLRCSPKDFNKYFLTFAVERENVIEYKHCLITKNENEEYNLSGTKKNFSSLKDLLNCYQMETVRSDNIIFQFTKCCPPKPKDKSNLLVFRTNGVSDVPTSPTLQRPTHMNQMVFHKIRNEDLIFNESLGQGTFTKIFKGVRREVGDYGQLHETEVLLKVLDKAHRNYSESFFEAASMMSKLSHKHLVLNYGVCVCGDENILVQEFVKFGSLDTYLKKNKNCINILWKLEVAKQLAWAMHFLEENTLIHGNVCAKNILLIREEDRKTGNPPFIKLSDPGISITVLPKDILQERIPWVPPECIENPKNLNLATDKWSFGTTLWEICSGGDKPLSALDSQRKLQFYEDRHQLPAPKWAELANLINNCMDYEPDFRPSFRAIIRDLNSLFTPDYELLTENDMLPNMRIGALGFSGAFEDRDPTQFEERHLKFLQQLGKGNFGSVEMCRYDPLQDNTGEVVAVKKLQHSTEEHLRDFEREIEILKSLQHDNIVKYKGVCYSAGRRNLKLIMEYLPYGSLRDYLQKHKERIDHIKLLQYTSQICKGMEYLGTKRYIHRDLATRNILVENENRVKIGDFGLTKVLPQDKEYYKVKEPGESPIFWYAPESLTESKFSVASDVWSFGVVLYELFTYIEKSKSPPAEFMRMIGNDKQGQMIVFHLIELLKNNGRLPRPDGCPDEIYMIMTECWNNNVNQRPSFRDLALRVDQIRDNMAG

AncSZ = test: as above
c-Abl (mouse) = test: as above
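Wherever SH2 binding enrichment of the phosphorylated peptide, bacterial display is given: peptide library displayed on the E. coli surface as eCPX fusions, selected cells deep-sequenced, score is each peptide's frequency after selection divided by its frequency in the input.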
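Wherever phosphorylation enrichment, bacterial display is given: 11-residue human phosphosite peptides and single-mutation variants displayed on the E. coli surface, counted by deep sequencing, each peptide's frequency after selection divided by its frequency in the unselected input library; frequency after pTyr selection over input frequency; kinase dosed for 20-30% of maximal phosphorylation in three min.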

Fes, sequence (P07332 whole entry, looked up): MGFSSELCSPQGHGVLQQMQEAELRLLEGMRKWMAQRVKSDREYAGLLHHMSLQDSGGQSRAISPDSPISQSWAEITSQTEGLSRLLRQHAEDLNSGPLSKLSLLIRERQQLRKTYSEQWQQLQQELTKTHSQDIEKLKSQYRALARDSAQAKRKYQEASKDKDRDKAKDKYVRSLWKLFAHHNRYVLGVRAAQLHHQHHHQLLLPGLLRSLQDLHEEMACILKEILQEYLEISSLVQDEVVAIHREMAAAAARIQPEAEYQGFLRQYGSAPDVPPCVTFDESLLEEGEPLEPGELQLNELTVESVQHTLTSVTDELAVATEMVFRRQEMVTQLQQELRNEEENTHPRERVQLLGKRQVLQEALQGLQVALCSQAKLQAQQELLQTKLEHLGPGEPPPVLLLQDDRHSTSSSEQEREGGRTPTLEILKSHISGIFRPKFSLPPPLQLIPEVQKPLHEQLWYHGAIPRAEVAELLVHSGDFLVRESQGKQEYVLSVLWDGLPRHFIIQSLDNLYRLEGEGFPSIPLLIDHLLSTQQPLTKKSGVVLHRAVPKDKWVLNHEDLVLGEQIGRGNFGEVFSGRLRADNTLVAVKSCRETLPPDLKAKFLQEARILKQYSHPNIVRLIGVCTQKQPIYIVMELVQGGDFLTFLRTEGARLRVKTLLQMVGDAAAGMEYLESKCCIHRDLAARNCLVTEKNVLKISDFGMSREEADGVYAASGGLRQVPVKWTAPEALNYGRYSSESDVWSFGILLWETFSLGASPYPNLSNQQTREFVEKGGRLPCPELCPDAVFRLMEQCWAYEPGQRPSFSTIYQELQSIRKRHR

Sequence | SH2 binding enrichment (c-Src SH2) | SH2 binding enrichment (Grb2 SH2) | SH2 binding enrichment (SHP2-C SH2) | phosphorylation enrichment (Fes) | phosphorylation enrichment (EPHB2) | phosphorylation enrichment (Fyn) | phosphorylation enrichment (FGFR1) | phosphorylation enrichment (EPHB1) | phosphorylation enrichment (MERTK) | phosphorylation enrichment (Hck) | phosphorylation enrichment (FGFR3) | phosphorylation enrichment (Fer (mouse)) | phosphorylation enrichment (c-Src) | phosphorylation enrichment (Jak2) | phosphorylation enrichment (AncSZ) | phosphorylation enrichment (c-Abl (mouse))
EVVGRYSGHNA [MLH1_Y183_V185G] | 0.448 | 0.768 | 0.629 | 0.514 | 0.4 | 0.414 | 0.405 | 0.434 | 0.426 | 0.403 | 0.48 | 0.397 | 0.34 | 0.397 | 0.464 | 0.368
TDHLQYFDSNK [ARAP1_Y359_R358Q] | 0.536 | 1.2 | 0.94 | 1.31 | 0.651 | 0.79 | 0.928 | 0.721 | 0.607 | 0.697 | 0.84 | 0.654 | 0.656 | 0.914 | 0.809 | 0.695
ISKQEYDEAGP [ACTC1_Y364] | 6.16 | 0.921 | 0.718 | 1.29 | 0.741 | 0.602 | 0.522 | 0.65 | 0.518 | 0.616 | 0.819 | 0.627 | 0.598 | 1.31 | 1.28 | 0.79
TVFSDYLHPQY [CCPG1_Y569] | 0.541 | 0.88 | 0.76 | 0.944 | 0.505 | 0.43 | 0.699 | 0.727 | 0.417 | 0.457 | 0.723 | 0.398 | 0.498 | 1.36 | 2.34 | 0.785

Second part, led by results:

SH2 binding enrichment (c-Src SH2) | SH2 binding enrichment (Grb2 SH2) | SH2 binding enrichment (SHP2-C SH2) | Sequence | phosphorylation enrichment (Fes) | phosphorylation enrichment (EPHB2) | phosphorylation enrichment (Fyn) | phosphorylation enrichment (FGFR1) | phosphorylation enrichment (EPHB1) | phosphorylation enrichment (MERTK) | phosphorylation enrichment (Hck) | phosphorylation enrichment (FGFR3) | phosphorylation enrichment (Fer (mouse)) | phosphorylation enrichment (c-Src) | phosphorylation enrichment (Jak2) | phosphorylation enrichment (AncSZ) | phosphorylation enrichment (c-Abl (mouse))
1.93 | 0.853 | 0.881 | MAFDRYAAICS [OR8H2_Y123_H120Y_YF] | 1.3 | 0.998 | 0.479 | 0.548 | 0.893 | 0.889 | 0.76 | 0.641 | 0.597 | 0.576 | 1.2 | 1.15 | 0.95
0.56 | 0.858 | 0.629 | EPTPGYEVSQR [TSC2_Y1788_G1791S] | 0.888 | 0.549 | 0.437 | 0.46 | 0.434 | 0.427 | 0.441 | 0.641 | 0.447 | 0.383 | 0.706 | 0.83 | 0.615
0.817 | 0.86 | 0.589 | LYIDSYEKDVA [PGM1_Y521] | 1.5 | 1.15 | 0.77 | 0.895 | 0.816 | 0.717 | 0.659 | 1.14 | 0.798 | 0.69 | 1.24 | 1.81 | 0.45
0.512 | 1.01 | 1.09 | MSRDIYSTDFF [NTRK1_Y676_YF] | 1.04 | 6.8 | 6.12 | 2.6 | 5.71 | 10.4 | 4.34 | 1.65 | 1.63 | 5.13 | 0.726 | 0.852 | 0.631
0.426 | 0.569 | 0.545 | DDFDLYGGEKF [PTPN11_Y66_Y62D_YF] | 1.38 | 0.659 | 2.27 | 0.585 | 0.639 | 0.475 | 3.11 | 0.727 | 1.72 | 2.14 | 1.2 | 1.28 | 0.731
